The source of these data is publication PMC3072145.

The target of one data set is Hfq wt (Escherichia coli, UniProt P0A6X3 1-102). Put plainly: analytical ultracentrifugation.
For another data set, the target named is Hfq-NA (Escherichia coli, UniProt P0A6X3 1-102). Kind of data set: analytical ultracentrifugation.

On to AAAAAAAAAAAAAAAAAA (ssRNA) [FAM-rA18], for which the binding result with Hfq wt and in the data set with Hfq-NA was “binds” in each case.
